Laboratory results: patent US20160011195A1

Legend:
[1] = molecular target: PLK1 PBD protein (residues 367-603) (human) (UniProt P53350); assay: competitive FP, displacement of fluorescein tracer SEQ ID NO: 7 from PLK1 PBD (367-603)
[2] = molecular target: PLK1 PBD protein (residues 367-603) (human) (UniProt P53350); assay: competitive FP
[3] = molecular target: PLK1 326-603 (longer PBD construct) (human) (UniProt P53350); assay: competitive FP, displacement of fluorescent tracer peptide from PLK1 326-603
PLK1 326-603 (longer PBD construct) (human), sequence (P53350 326-603 limits assumed): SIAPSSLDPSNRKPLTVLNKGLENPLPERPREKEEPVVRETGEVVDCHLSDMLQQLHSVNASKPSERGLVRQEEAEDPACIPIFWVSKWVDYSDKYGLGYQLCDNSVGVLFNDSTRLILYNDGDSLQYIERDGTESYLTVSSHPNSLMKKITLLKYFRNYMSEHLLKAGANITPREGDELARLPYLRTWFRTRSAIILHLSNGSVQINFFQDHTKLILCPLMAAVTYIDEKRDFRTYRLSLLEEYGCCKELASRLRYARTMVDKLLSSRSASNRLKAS

PLK1 PBD protein (residues 367-603) (human), sequence (P53350 367-603 limits assumed): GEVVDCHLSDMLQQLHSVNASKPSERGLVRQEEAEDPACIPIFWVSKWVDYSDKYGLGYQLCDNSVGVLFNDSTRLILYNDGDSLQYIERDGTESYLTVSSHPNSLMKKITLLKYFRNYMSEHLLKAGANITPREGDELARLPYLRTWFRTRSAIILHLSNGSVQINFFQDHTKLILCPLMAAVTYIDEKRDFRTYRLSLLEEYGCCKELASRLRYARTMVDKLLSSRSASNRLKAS

Substance	IC50 [1]	other results
3G2-S[pT]PNGL (4-butylbenzoic acid) (Sample No. 5827) (peptide)	8.6 µM	–
LDCS[pT]PNGL (sample no. 5795) (peptide)	3 µM	–
LHS[pT]AI (sample no. 5649) (peptide)	200 µM	–
Ac-LHS[pT]AI (sample no. 5781) (peptide)	5 µM	fold less potent than the parent peptide containing the N-terminal LLC [2]: 6 fold; fold more potent than the non-acetylated version (sample no. 5649) [2]: 40 fold
Ac-LLCS[pT]PNGL (sample no. 5821) (peptide)	0.5 µM	–
LLCS[pT]PNGL, native phospho-CDC25c PBD binding sequence (sample no. 292) (peptide)	0.42 µM	IC50 [3]: 1.3 µM
Ac-AHS[pT]AI (sample no. 5782) (peptide)	15 µM	fold higher IC50 (against Ac-LHS[pT]AI, sample no. 5781) [2]: 3 fold
S[pT]PNGL (sample no. 5714) (peptide)	> 600 µM	–
3G1-S[pT]PNGL (4-ethylbenzoic acid) (Sample No. 5788) (peptide)	16.5 µM	–
Ac-PLHS[pT]A (sample no. 5743) (peptide)	2 µM	–
